Patent publication US20230365714A1 (published 2023)

Experiments:
[1] = target: T1, ROR121 shuffle variant (Ig-like domain of ROR1, CRD of ROR2, kringle domain of ROR1) (human (ROR1/ROR2 chimera), UniProt Q01973 30-937); experiment: cell imaging (CellInsight) on CHO cells expressing the shuffle construct
T1 construct: Transiently expressed on CHO cells
T1 chain: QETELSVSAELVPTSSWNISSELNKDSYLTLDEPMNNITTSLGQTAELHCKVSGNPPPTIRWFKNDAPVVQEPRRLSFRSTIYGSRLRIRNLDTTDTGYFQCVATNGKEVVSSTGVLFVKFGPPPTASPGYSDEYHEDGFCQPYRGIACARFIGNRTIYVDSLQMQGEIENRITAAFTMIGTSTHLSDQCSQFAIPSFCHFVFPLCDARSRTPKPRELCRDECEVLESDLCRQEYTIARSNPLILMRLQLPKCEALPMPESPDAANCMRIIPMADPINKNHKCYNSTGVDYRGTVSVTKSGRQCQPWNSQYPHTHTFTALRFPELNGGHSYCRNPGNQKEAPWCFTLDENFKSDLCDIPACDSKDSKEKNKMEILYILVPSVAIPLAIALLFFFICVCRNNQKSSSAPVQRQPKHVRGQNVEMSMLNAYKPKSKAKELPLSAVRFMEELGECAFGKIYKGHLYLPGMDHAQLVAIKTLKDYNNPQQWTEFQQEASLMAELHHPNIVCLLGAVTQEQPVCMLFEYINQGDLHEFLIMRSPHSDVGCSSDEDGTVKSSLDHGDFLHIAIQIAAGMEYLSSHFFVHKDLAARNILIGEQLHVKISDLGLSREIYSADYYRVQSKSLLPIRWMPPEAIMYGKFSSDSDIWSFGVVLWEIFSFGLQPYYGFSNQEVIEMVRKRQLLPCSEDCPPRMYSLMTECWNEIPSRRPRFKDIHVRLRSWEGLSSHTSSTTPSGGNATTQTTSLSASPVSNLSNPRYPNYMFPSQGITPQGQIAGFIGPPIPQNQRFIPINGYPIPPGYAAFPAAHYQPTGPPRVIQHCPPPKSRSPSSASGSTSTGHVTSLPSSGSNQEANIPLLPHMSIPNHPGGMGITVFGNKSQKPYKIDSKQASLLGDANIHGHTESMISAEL
Experimental: (§1) Binding was determined […] using a cell imaging screening system (Celllnsight, Thermo Fisher) as per manufacturer's recommendations. In short, CHO cells expressing shuffle constructs ROR112, ROR121, ROR122, ROR211 or ROR221 (3,000 cells/well in 384-well plates) were incubated with antibody or control samples for 18 h at 37° C./5% CO₂, washed and incubated with an Alexa488-labeled detection antibody for 4 h. Hoechst dye was added and fluorescence images were collected, measuring total spot intensity (RFU).

[2] = target: T2, ROR221 shuffle variant (Ig-like domain and CRD of ROR2, kringle domain of ROR1) (human (ROR1/ROR2 chimera), UniProt Q01973 30-937); experiment: as above
T2 chain: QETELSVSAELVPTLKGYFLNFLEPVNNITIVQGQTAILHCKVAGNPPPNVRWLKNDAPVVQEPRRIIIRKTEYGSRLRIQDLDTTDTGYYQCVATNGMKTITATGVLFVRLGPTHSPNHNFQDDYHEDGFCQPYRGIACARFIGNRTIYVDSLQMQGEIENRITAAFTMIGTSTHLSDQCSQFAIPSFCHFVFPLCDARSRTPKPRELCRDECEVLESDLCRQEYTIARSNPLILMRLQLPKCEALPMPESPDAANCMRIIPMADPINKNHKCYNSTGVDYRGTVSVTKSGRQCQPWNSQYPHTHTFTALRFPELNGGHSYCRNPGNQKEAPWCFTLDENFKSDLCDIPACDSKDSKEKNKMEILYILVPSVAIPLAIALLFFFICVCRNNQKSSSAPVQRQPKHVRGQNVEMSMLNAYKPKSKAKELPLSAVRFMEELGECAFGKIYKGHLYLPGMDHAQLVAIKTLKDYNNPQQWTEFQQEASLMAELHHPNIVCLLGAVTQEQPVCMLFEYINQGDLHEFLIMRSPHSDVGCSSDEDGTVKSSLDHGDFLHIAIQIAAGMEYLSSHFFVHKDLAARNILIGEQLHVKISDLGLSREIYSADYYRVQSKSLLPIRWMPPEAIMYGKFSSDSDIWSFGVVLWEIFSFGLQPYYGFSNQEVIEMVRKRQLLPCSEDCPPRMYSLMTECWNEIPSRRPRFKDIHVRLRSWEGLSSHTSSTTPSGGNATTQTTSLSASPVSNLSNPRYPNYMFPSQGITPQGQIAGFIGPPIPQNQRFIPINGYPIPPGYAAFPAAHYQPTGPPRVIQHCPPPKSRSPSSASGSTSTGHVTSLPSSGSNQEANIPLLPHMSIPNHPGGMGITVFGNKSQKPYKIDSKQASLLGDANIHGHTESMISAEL
Experimental: as §1

B1: chIgG1-ROR2-A (antibody, V domains shown)
VH: QSVEESGGRLVTPGTPLTLTCTVSGFSLSSYSMSWVRQAPGKGLEWIGVIYVNSKTWYANWAKGRFTISKTSTTVDLKITSPTTEDTATYFCARGDAGYTTNSWLWGPGTLVTVSS
VL: AFELTQTPASVSEPVGGTVTIKCQASESIDNYCSWYQQKPGQPPKLLIYQAFKLASGVPSRFRGSGSGTQFTLTISDLESDDAATYYCQSYSGISTTAFGGGTEVVVK
notes: Rabbit-human chimeric antibody; also called ROR2 specific antibody A
RFU (total spot intensity) [1]: 0 RFU
binding result [1]: no binding (tested: RFU = 0)
RFU (total spot intensity) [2]: 0 RFU
binding result [2]: no binding (tested: RFU = 0)
